Assay results reported in paper doi:10.1101/2024.06.20.599739, “Design of linear and cyclic peptide binders of different lengths from protein sequence information” (bioRxiv, 2024).
Several values for one entry are separate records, joined by “and”; a condition that tells them apart may be missing. Equal values may be shown once.

Biological target: T1, MBP-8xHis-1SCC (semi-synthetic Ribonuclease, PDB ID 1SSC) (UniProt P61823 27-138)
T1 construct: also called psfRNAseA; psfRNAseA-c001; source: E. coli BL21 (DE3) T1R, purified (IMAC, size exclusion chromatography)
T1 sequence: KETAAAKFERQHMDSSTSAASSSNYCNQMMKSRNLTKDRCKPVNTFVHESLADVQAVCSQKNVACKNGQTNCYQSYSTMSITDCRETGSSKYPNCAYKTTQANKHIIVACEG
Assay: SPR; MBP-8xHis-1SCC immobilised to about 12000 RU by amine coupling (EDC/NHS) on a Series S CM5 chip, Biacore 8K; peptides as analytes, single-cycle kinetics (2, 10, 50 μM; or 3.125-50 μM in five steps); 25 °C; HBS-P+ (10 mM HEPES pH 7.4, 150 mM NaCl, 0.05% Tween-20); 30 μL/min, 120 s association, 1800 s dissociation; 1:1 binding model
Settings: both partners purified

Kd: 35 nM and 25 nM
B1: known peptide binder (11 residues) of the semi-synthetic Ribonuclease (peptide)
peptide: PYVPVHFDASV
notes: C-terminal stretch of ribonuclease A, the peptide chain of PDB 1SSC; also called wildtype (WT) linear peptide; wild-type peptide; source: synthetic peptide
